Laboratory results as given in US20110020802, “NUCLEIC ACIDS, METHODS AND KITS FOR THE DIAGNOSIS OF DYT6 PRIMARY TORSION DYSTONIA” (Mount Sinai School of Medicine of New York University, published 2011).

Target: T1, THAP1 wild type (Homo sapiens, UniProt Q9NVV9 SEQ:1-213)
T1 sequence: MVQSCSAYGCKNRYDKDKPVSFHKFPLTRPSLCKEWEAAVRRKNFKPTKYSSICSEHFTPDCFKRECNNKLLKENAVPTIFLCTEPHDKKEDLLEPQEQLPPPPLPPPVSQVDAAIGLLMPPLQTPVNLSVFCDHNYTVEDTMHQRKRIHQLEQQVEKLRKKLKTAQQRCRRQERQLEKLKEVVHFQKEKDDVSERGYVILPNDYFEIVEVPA
Assay: EMSA; specific band supershifted by anti-THAP1 and competed by >200x unlabeled THABS; 150 mM KCl, 20 mM Tris pH 7.5, poly(dI-dC), room temperature
Settings: tags: N-terminal V5 (pcDNA3.1/nV5); label: 5'-32P
Protocol: Double-stranded oligonucleotide was prepared by annealing synthetic complementary oligonucleotides (5′-[…]-3′ (SEQ ID NO: 17) and the reverse complement of this oligo 5′ […]-3′ (SEQ ID NO: 48)) in 20 mM Tris/HCl (pH 7.5), 10 mM MgCl2, 50 mM NaCl, 1 mM dithiothreitol (DTT) by heating for 5 min at 95° c, and cooling to room temperature overnight. Probes were end-labeled with [gamma-³²P]ATP using T4 polynucleotide kinase. Unincorporated nucleotides were removed by column chromatography (illustra MicroSpin™ G-25 Columns, GE Healthcare), according to the manufacturer's protocol. […] Following buffer at 150 V at room temperature, gels were dried and exposed to storage Phosphor screens that were scanned and analyzed using a Typhoon phosphorimager (GE Healthcare).
The two constructs were expressed in an in vitro transcription/translation (IVTT) system and assessed by western for equal levels of protein expression (FIG. 4A). When the radiolabeled THABS probe was incubated with the IVTT wild-type THAP1, a major shifted band was detected (FIG. 4B, lane 6, arrowhead). […]

B1: THABS probe (dsDNA)
DNA 1: AGCAAGTAAGGGCAACTACTTCAT
DNA 2: ATGAAGTAGTTGCCCTTACTTGCT
B1: binds.
